In CN113444176A (WUHAN RENFU INNOVATIVE DRUG R&D CENTER CO LTD; HUMANWELL …, dated 2021):
Read-outs that look alike come from different tables or passages of the source.

T1: 重组NT4 (神经营养因子4) (Homo sapiens (Human), UniProt P34130 81-210)
T1 sequence: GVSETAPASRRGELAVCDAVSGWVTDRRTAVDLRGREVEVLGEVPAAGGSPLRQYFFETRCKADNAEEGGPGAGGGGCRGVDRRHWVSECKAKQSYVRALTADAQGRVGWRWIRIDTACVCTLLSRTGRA

T2: 重组NT3 (神经营养因子3) (Rattus norvegicus (Rat), UniProt P18280 140-258)
T2 sequence: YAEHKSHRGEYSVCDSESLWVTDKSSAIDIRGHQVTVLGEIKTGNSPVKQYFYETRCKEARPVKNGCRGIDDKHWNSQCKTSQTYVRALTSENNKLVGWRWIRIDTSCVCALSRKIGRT

T3: 重组BDNF (脑源性神经营养因子) (Helarctos malayanus (Malayan sun bear) …, UniProt O18753 129-247)
T3 sequence: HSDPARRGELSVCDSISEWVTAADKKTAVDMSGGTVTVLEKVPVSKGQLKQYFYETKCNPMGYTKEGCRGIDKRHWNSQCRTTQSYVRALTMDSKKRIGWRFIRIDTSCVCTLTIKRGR


Tests used:
重组NT4 (神经营养因子4) = target: T1, 重组NT4 (神经营养因子4); test: SPR, Biacore 8K, CM5 chip, antibody as analyte
重组NT3 (神经营养因子3) = target: T2, 重组NT3 (神经营养因子3); test: SPR, Biacore 8K, CM5 chip, antibody as analyte
重组BDNF (脑源性神经营养因子) [1] = target: T3, 重组BDNF (脑源性神经营养因子); test: competition ELISA: coated NGF, antibody preincubated with recombinant BDNF
[2] = target: T4, 重组人NGF蛋白 (recombinant human nerve growth factor) (human, UniProt P01138 122-241); test: SPR, Biacore 8K, NGF coupled to CM5 chip, antibody as analyte, 1:1 binding model
T4 construct: also called 重组NGF蛋白; 重组NGF抗原
T4 sequence (P01138 122-241 limits assumed): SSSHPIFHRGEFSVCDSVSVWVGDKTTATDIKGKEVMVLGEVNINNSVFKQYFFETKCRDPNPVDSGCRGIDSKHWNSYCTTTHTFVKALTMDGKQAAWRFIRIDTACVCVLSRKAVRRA

重组BDNF (脑源性神经营养因子) [3] = target: T3, 重组BDNF (脑源性神经营养因子); test: SPR, Biacore 8K, CM5 chip, antibody as analyte
[4] = target: T4, 重组人NGF蛋白 (recombinant human nerve …); test: SPR, Biacore 8K, NGF coupled to CM5 chip, antibody as analyte, 1:1 binding model; remark: listed apart in the source

Row | Binder | binding result (重组NT4 (神经营养因子4)) | binding result (重组NT3 (神经营养因子3)) | binding result (重组BDNF (脑源性神经营养因子) [1]) | Kd [2] [nM] | koff [2] [s⁻¹] | kon [2] [M⁻¹ s⁻¹] | binding result (重组BDNF (脑源性神经营养因子) [3]) | Kd [4] [nM] | koff [4] [s⁻¹] | kon [4] [M⁻¹ s⁻¹]
1 | 人源化抗NGF抗体Ab01 (antibody, human IgG4 S228P, kappa, V domains shown, Humanised from F3; human IgG4 (S228P) heavy constant region and human kappa constant region; expressed in CHO cells) VH: EVQLVESGGGLVKPGGSLRLSCAASGFTFSRYAMSWVRQAPGKGLEWVSTISSGGSYTYYPDSVKGRFTISRDNAKNSLYLQMNSLRAEDTAVYYCARHGEFYGTTFDVHYFDYWGQGTLVTVSS VL: AIQLTQSPSSLSASVGDRVTITCRASESVDSYGNSFMHWYQQKPGKAPKLLIYLASNLESGVPSRFSGSGSGTDFTLTISSLQPEDFATYYCQQNNEDPLTFGGGTKVEIKR | no binding | no binding | no binding | 0.151 | 4.35e-05 | 287000 |  |  |  | 
2 | 人源化抗NGF抗体Ab02 (antibody, human IgG4 S228P, kappa, V domains shown, Humanised from F3; human IgG4 (S228P) heavy constant region and human kappa constant region; expressed in CHO cells) VH: EVQLVESGGGLVQPGGSLRLSCAASGFTFSRYAMSWVRQAPGKGLVWVSTISSGGSYTYYPDSVKGRFTISRDNAKNTLYLQMNSLRAEDTAVYYCARHGEFYGTTFDVHYFDYWGQGTLVTVSS VL: EIVLTQSPATLSLSPGERATLSCRASESVDSYGNSFMHWYQQKPGQAPRLLIYLASNLESGIPDRFSGSGSGTDFTLTISRLEPEDFAVYYCQQNNEDPLTFGGGTKVEIKR | no binding | no binding |  | 0.137 | 4.02e-05 | 294000 | no binding |  |  | 
3 | 人源化抗NGF抗体Ab03 (antibody, human IgG4 S228P, kappa, V domains shown, Humanised from F3; human IgG4 (S228P) heavy constant region and human kappa constant region; expressed in CHO cells) VH: EVQLVESGGGLVQPGGSLRLSCAASGFTFSRYAMSWVRQAPGKGLEWVSTISSGGSYTYYPDSVKGRFTISRDNAKNSLYLQMNSLRAEDTAVYYCARHGEFYGTTFDVHYFDYWGQGTLVTVSS VL: EIVLTQSPATLSLSPGERATLSCRASESVDSYGNSFMHWYQQKPGQAPRLLIYLASNLESGIPARFSGSGSGTDFTLTISSLEPEDFAVYYCQQNNEDPLTFGGGTKVEIKR | no binding | no binding |  | 0.0918 | 2.78e-05 | 303000 | no binding |  |  | 
4 | 鼠源抗体F3 (anti-NGF mouse monoclonal antibody F3) (antibody, mouse IgG1, kappa, V domains shown, Hybridoma antibody; also called 杂交瘤单抗F3) VH: EVMLVESGGDLVKPGGSLKLSCAASGFTFSRYAMSWVRQTPEKRLEWVATISSGGSYTYYPDSVKGRFTISRDNAKNTLYLQMSSLRSEDTAMFYCARHGEFYGTTFDVHYFDYWGQGTTLTVSS VL: YIVLTQSPASLAVSLGQRATISCRASESVDSYGNSFMHWYQQKPGQPPKLLIYLASNLESGVPARFSGSGSRTDFTLTIDPVEADDAATYYCQQNNEDPLTFGTGTKLELKR |  |  |  |  |  |  |  | 0.335 | 0.000121 | 363000
5 | 鼠源抗体G9 (anti-NGF mouse monoclonal antibody G9) (antibody, mouse IgG1, kappa, V domains shown, Hybridoma antibody; also called 杂交瘤单抗G9) VH: EVQLQQSGTVLARPGTSVRMSCKASGYTFTSYWMHWIKQRPGQGLEWIGAIYPGNSDTSYTQKFKGKAKLTAVTSTSTAYMELSSLTNEDSAVYYCTTPYGYDEDWYFNVWGAGTTVTVPS VL: NIVMTQSPKSMSMSVGERVTLSCKASENVGTYVSWYQQKPEQPPKLLIYGASNRYTGVPDRFTGCGSATDFTLTISSVQAEDLADYHCGQSYSYPLTFGAGTKLELKR |  |  |  |  |  |  |  | 1.29 | 0.000283 | 219000
